The results in this text go back to PMC4391858.

Data set [1] can be described thus: confocal immunocytochemistry of coexpressed DLL1, CHO cells. Conditions: glycan lost; control: wild type DLL3.
Data set [2] can be described thus: cycloheximide chase, Western blot, CHO cells. The settings on record: glycan lost; control: wild type DLL3. A general note: In western blotting, separated proteins are transferred to a membrane and probed.

B1: Delta-like 3 (DLL3): DLL3-S286A,T403V (protein)
parent chain: MVSLQVSPLSQTLILAFLLPQALPAGVFELQIHSFGPGPGLGTPRSPCNARGPCRLFFRVCLKPGVSQEATESLCALGAALSTSVPVYTEHPGESAAALPLPDGLVRVPFRDAWPGTFSLVIETWREQLGEHAGGPAWNLLARVVGRRRLAAGGPWARDVQRTGTWELHFSYRARCEPPAVGAACARLCRSRSAPSRCGPGLRPCTPFPDECEAPSVCRPGCSPEHGYCEEPDECRCLEGWTGPLCTVPVSTSSCLNSRVPGPASTGCLLPGPGPCDGNPCANGGSCSETSGSFECACPRGFYGLRCEVSGVTCADGPCFNGGLCVGGEDPDSAYVCHCPPGFQGSNCEKRVDRCSLQPCQNGGLCLDLGHALRCRCRAGFAGPRCEHDLDDCAGRACANGGTCVEGGGSRRCSCALGFGGRDCRERADPCASRPCAHGGRCYAHFSGLVCACAPGYMGVRCEFAVRPDGADAVPAAPRGLRQADPQRFLLPPALGLLVAAGLAGAALLVIHVRRRGPGQDTGTRLLSGTREPSVHTLPDALNNLRLQDGAGDGPSSSADWNHPEDGDSRSIYVIPAPSIYAREDWLIQVLF
Turning to B1, the “localisation_or_trafficking, other: cells with DLL1 relocalised outside Golgi” value in data set [1] is recorded as “decreases, the intracellular DLL1 staining did not change obviously (10 out of 14 cells”. For the same protein, the degradation_or_half_life entry in data set [2] was “no change”.
